Results taken from patent publication US20210139588A1.

Assays:
[1] = molecular target: wild type (glycosylated) PD-1 expressed on 293T cells (PD-1-Flag) (human) (UniProt Q15116); assay: flow cytometry on 293T cells expressing the PD-1 variant, anti-mouse IgG-PE secondary, DAPI-negative population gated; percent of cells right of the dashed gate; 293T blank cells give 1.69
[2] = molecular target: N116Q mutant PD-1 expressed on 293T cells (PD-1-Flag) (human) (UniProt Q15116); assay: as above
[3] = molecular target: N74Q mutant PD-1 expressed on 293T cells (PD-1-Flag) (human) (UniProt Q15116); assay: as above
[4] = molecular target: N58Q mutant PD-1 expressed on 293T cells (PD-1-Flag) (human) (UniProt Q15116); assay: as above
[5] = molecular target: 4NQ mutant (unglycosylated) PD-1 expressed on 293T cells (PD-1-Flag) (human) (UniProt Q15116); assay: as above
[6] = molecular target: N49Q mutant PD-1 expressed on 293T cells (PD-1-Flag) (human) (UniProt Q15116); assay: as above
[7] = molecular target: wild type (glycosylated) PD-1 expressed on 293T cells (PD-1-Flag) (human) (UniProt Q15116); assay: flow cytometry on 293T cells expressing the PD-1 form, labeled secondary antibody; control antibody
[8] = molecular target: N116Q mutant PD-1 expressed on 293T cells (PD-1-Flag) (human) (UniProt Q15116); assay: as above
[9] = molecular target: N74Q mutant PD-1 expressed on 293T cells (PD-1-Flag) (human) (UniProt Q15116); assay: as above
[10] = molecular target: N58Q mutant PD-1 expressed on 293T cells (PD-1-Flag) (human) (UniProt Q15116); assay: as above
[11] = molecular target: 4NQ mutant (unglycosylated) PD-1 expressed on 293T cells (PD-1-Flag) (human) (UniProt Q15116); assay: as above
[12] = molecular target: N49Q mutant PD-1 expressed on 293T cells (PD-1-Flag) (human) (UniProt Q15116); assay: as above

Sequence of 4NQ mutant (unglycosylated) PD-1 expressed on 293T cells (PD-1-Flag) (human) (Q15116 other isoform, or with tags, fused parts or gaps mutant): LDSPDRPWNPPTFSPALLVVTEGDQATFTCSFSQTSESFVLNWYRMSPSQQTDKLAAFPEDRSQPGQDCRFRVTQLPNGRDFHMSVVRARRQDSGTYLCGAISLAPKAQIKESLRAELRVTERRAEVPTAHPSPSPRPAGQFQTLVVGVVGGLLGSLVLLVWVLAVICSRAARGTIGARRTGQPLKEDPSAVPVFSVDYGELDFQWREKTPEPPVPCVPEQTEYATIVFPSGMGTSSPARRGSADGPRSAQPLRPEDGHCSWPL
Sequence of wild type (glycosylated) PD-1 expressed on 293T cells (PD-1-Flag) (human) (Q15116 25-288): as the sequence (Q15116 other isoform, or with tags, fused parts or gaps mutant) above, with Q25N, Q34N, Q50N, Q92N counted along it
Sequence of N116Q mutant PD-1 expressed on 293T cells (PD-1-Flag) (human) (Q15116 25-288 N116Q): as the sequence (Q15116 other isoform, or with tags, fused parts or gaps mutant) above, with Q25N, Q34N, Q50N counted along it
Sequence of N58Q mutant PD-1 expressed on 293T cells (PD-1-Flag) (human) (Q15116 25-288 N58Q): as the sequence (Q15116 other isoform, or with tags, fused parts or gaps mutant) above, with Q25N, Q50N, Q92N counted along it
Sequence of N49Q mutant PD-1 expressed on 293T cells (PD-1-Flag) (human) (Q15116 25-288 N49Q): as the sequence (Q15116 other isoform, or with tags, fused parts or gaps mutant) above, with Q34N, Q50N, Q92N counted along it
Sequence of N74Q mutant PD-1 expressed on 293T cells (PD-1-Flag) (human) (Q15116 25-288 N74Q): as the sequence (Q15116 other isoform, or with tags, fused parts or gaps mutant) above, with Q25N, Q34N, Q92N counted along it

Unit (%) (cells in the positive gate) [1]: 10.7%
Unit (%) (cells in the positive gate) [2]: 2.37%
Unit (%) (cells in the positive gate) [3]: 3.25%
Unit (%) (cells in the positive gate) [4]: 17.6%
Unit (%) (cells in the positive gate) [5]: 1.53%
Unit (%) (cells in the positive gate) [6]: 2.73%
MFI [7]: 52 MFI
MFI [8]: 28 MFI
MFI [9]: 26 MFI
MFI [10]: 106 MFI
MFI [11]: 26 MFI
MFI [12]: 31 MFI
Substance: control mouse IgG (antibody)
